From US11512128B2, “VEGF/DLL4 binding agents and uses thereof” (MEREO BIOPHARMA 5, INC., priority 2011, dated 2022)

T1: mouse VEGF165 (Mus musculus, UniProt Q00731)
T1 sequence (Q00731 27-190 isoform Q00731-2): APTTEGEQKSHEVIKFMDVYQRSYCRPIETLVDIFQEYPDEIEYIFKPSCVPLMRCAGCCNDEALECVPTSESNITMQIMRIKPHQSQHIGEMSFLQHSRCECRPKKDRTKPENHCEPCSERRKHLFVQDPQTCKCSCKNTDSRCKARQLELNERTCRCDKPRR


Columns and labels:
OMP-C8 colon tumor = assay: Tumorigenicity of OMP-C8 colon tumors after treatment (serial transplantation); assay type: in vivo, NOD/SCID mice; conditions: 150 cells from treated tumors transplanted, day 68; for tumor growth frequency, single agents: without irinotecan combination
Description: FIG. 10. Tumorigenicity of […] colon tumor cells after treatment with anti-VEGF/anti-DLL4 bispecific antibodies. Tumors from mice treated with control antibody, anti-hDLL4 antibody 21M18, anti-VEGF antibody bevacizumab, a combination of 21M18 and bevacizumab, or anti-VEGF/anti-DLL4 bispecific antibodies 219R45-MB-21M18 or 219R45-MB-21R79 with or without irinotecan were processed to single cell suspensions, and serially transplanted into mice. 150 cells from each treatment group were injected subcutaneously into NOD/SCID mice. Tumors were allowed to grow with no treatment. Data are shown as tumor volume (mm^3) on day 68.
Single cell suspensions of OMP-C8 colon tumor xenografts (20,000 cells) were injected subcutaneously into the flanks of 6-8 week old NOD/SCID mice. Tumors were allowed to grow for 33 days until they reached an average volume of 300 mm^3. The mice were randomized (n=5 per group) and treated with anti-DLL4 antibody 21M18, anti-VEGF antibody bevacizumab, a combination of antibodies 21M18 and bevacizumab, anti-VEGF/anti-DLL4 bispecific antibody 219R45-MB-21M18, anti-VEGF/anti-DLL4 bispecific antibody 219R45-MB-21R79, or control antibody, either in combination with irinotecan or without irinotecan. Antibodies and irinotecan were dosed weekly by injection into the intraperitoneal cavity. Antibodies 21M18 and bevacizumab were dosed at 7.5 mg/kg, bispecific antibodies 219R45-MB-21M18 and 219R45-MB-21R79 were dosed at 15 mg/kg, and irinotecan was dosed at 45 mg/kg. Tumors were harvested after 4 weeks, processed into single cell suspensions, and the human tumor cells were isolated. 150 tumor cells from each experimental group were injected subcutaneously into a new cohort of mice (n=10 per group) and tumors were allowed to grow without treatment. Tumor growth was monitored and tumor volumes were measured with electronic calipers.

[1] = test system: OMP-PN8 pancreatic tumor cells; assay: Tumorigenicity of OMP-PN8 pancreatic tumor cells after treatment (serial transplantation); assay type: in vivo, NOD/SCID mice; conditions: 90 cells from treated tumors transplanted, day 55, no treatment; 21M18, bevacizumab 15 mg/kg, bispecifics 30 mg/kg, gemcitabine 70 mg/kg, four weeks
Description: FIG. 6. Tumorigenicity of pancreatic tumor cells after treatment with anti-VEGF/anti-DLL4 bispecific antibodies. OMP-PN8 tumor cells from mice treated with control antibody, anti-hDLL4 antibody 21M18, anti-VEGF antibody bevacizumab, or anti-VEGF/anti-DLL4 bispecific antibodies 219R45-MB-21M18 or 219R45-MB-21R79 with or without gemcitabine were processed to single cell suspensions, and serially transplanted into mice. 90 cells from each treatment group were injected subcutaneously into NOD/SCID mice. Tumors were allowed to grow with no treatment. Data is shown as tumor volume (mm^3) on day 55. Tumor frequency is shown as number of tumors over total number of mice injected in each group.
Mice bearing OMP-PN8 pancreatic tumors were treated with control antibody (15 mg/kg), anti-hDLL4 antibody 21M18 (15 mg/kg), anti-VEGF antibody bevacizumab (15 mg/kg), or anti-VEGF/anti-DLL4 bispecific antibodies 219R45-MB-21M18 or 219R45-MB-21R79 (30 mg/kg) with or without gemcitabine (70 mg/kg). Following four weeks of treatment, tumors were harvested, processed to single cell suspensions and the human tumor cells were purified by immunomagnetic depletion of murine cells. 90 human tumor cells from each treatment group were transferred to a new cohort of mice (n=10 mice/group). Tumors were allowed to grow for 55 days without any treatment and tumor volumes were measured with electronic calipers.

mouse VEGF165 = biological target: T1, mouse VEGF165; assay: Biacore binding affinity (KD) to mouse VEGF
Description: (§1) The KDs of parental antibodies anti-VEGF 219R45 (IgG format), anti-DLL4 21R79 (IgG format), anti-DLL4 21M18 (IgG format) and bispecific antibodies 219R45-MB-21M18 and 219R45-MB-21R79 were determined using a Biacore 2000 system from Biacore LifeSciences (GE Healthcare). Recombinant human DLL4-Fc or mouse DLL4-Fc proteins were immobilized on CM5 carboxyl chips using standard amine-based chemistry (NHS/EDC) and blocked with ethanolamine. Recombinant human VEGF165 or mouse VEGF165 were biotinylated and immobilized on streptavidin chips. The antibodies were serially diluted 2-fold from 100 nM to 0.78 nM in HBS-P (0.01M HEPES pH7.4, 0.15M NaCl, 0.005% v/v Polysorbate 20). For each antibody, all 8 dilutions were sequentially injected over a specific chip. Kinetic data were collected over time and were fit using the simultaneous global fit equation to yield affinity constants (KD values) for each bispecific antibody.

mouse DLL4-Fc = assay: Biacore binding affinity (KD) to mouse DLL4; conditions: Biacore 2000, mouse DLL4-Fc on CM5 chip; read-out: KD mDLL4
Sequence of mouse DLL4-Fc (Q9JI71 27-519 limits assumed): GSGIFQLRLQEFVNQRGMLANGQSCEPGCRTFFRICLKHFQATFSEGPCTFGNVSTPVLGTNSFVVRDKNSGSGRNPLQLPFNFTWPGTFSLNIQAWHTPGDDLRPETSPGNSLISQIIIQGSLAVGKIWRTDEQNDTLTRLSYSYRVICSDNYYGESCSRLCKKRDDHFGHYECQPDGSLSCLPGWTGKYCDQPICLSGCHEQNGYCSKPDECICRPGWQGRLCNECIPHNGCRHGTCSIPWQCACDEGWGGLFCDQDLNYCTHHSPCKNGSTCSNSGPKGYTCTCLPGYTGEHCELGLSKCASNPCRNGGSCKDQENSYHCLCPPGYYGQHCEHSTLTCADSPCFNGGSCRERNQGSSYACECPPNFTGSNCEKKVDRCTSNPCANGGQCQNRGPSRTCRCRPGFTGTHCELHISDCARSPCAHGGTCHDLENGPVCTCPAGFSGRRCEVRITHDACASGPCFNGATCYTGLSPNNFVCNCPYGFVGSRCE
Description: as §1

[2] = test system: DLL4-induced Notch signaling; assay: DLL4-induced Notch signaling luciferase reporter assay in Notch2-expressing PC3 cells; assay type: cell-based; conditions: coated human DLL4 100 ng/well, antibody 20 to 0.064 ug/ml
Description: FIG. 4. Inhibition of DLL4-induced Notch signaling by anti-VEGF/anti-DLL4 bispecific antibodies. Luciferase activity was measured using a dual luciferase assay kit with firefly luciferase activity normalized to Renilla luciferase activity. 219R45-MB-21M18 (-●-); 219R45-MB-21R79 (-▪-); 21M18 (-∘-); 21R79 (-□-).
Human PC3 cells were transfected with an expression vector encoding a full-length human Notch2 receptor and a firefly luciferase reporter vector (8× CBF-luciferase reporter) that is responsive to Notch signaling. The cells were also transfected with a Renilla luciferase reporter (Promega, Madison, Wis.) as an internal control for transfection efficiency. Purified human DLL4 protein was coated onto 96-well plates at 100 ng/well and Notch2-expressing PC3-luc cells were added to the wells. Anti-VEGF/anti-DLL4 bispecific antibodies 219R45-MB-21M18, 219R45-MB-21R79, parental anti-DLL4 antibodies 21M18, 21R79 or a control antibody LZ1 were serially diluted 5-fold from 20 ug/ml to 0.064 ug/ml, added to the appropriate wells, and incubated overnight. Luciferase activity was determined using a dual luciferase assay kit (Promega, Madison, Wis.) with firefly luciferase activity normalized to Renilla luciferase activity.

Row | Molecule | tumor growth frequency, single agents (OMP-C8 colon tumor) | tumor growth frequency (mice with tumors) [1] | binding to mouse VEGF (in words) (mouse VEGF165) | Kd (mouse DLL4-Fc) [nM] | inhibition of DLL4-induced Notch signaling [2] | tumor growth frequency, combination of irinotecan and antibodies (OMP-C8 colon tumor; with irinotecan 45 mg/kg) | Kd (mouse VEGF165; Biacore 2000, biotinylated mouse VEGF165 on streptavidin chip, read-out: KD mVEGF) [nM]
1 | 219R45-MB-21R79: anti-VEGF/anti-DLL4 monovalent/bispecific antibody, heavy chains SEQ ID NO:7 and 6, light chains SEQ ID NO:8 (antibody, 21R79 Heavy chain without predicted signal sequence; Light chain without predicted signal sequence) heavy 1: QVQLVQSGAEVKKPGASVKVSCKASGYTFTNYWMHWVRQAPGQGLEWMGDINPSNGRTSYKEKFKRRVTLSVDKSSSTAYMELSSLRSEDTAVYFCTIHYDDKYYPLMDYWGQGTLVTVSSASTKGPSVFPLAPCSRSTSESTAALGCLVKDYFPEPVTVSWNSGALTSGVHTFPAVLQSSGLYSLSSVVTVPSSNFGTQTYTCNVDHKPSNTKVDKTVERKCCVECPPCPAPPVAGPSVFLFPPKPKDTLMISRTPEVTCVVVDVSHEDPEVQFNWYVDGVEVHNAKTKPREEQFNSTFRVVSVLTVVHQDWLNGKEYKCKVSNKGLPAPIEKTISKTKGQPREPQVYTLPPSREKMTKNQVSLTCLVKGFYPSDIAVEWESNGQPENNYKTTPPMLKSDGSFFLYSKLTVDKSRWQQGNVFSCSVMHEALHNHYTQKSLSLSPGK heavy 2: QVQLVQSGAEVKKPGASVKISCKASGYSFTAYYIHWVKQAPGQGLEWIGYIANYNRATNYNQKFKGRVTFTTDTSTSTAYMELRSLRSDDTAVYYCARDYDYDVGMDYWGQGTLVTVSSASTKGPSVFPLAPCSRSTSESTAALGCLVKDYFPEPVTVSWNSGALTSGVHTFPAVLQSSGLYSLSSVVTVPSSNFGTQTYTCNVDHKPSNTKVDKTVERKCCVECPPCPAPPVAGPSVFLFPPKPKDTLMISRTPEVTCVVVDVSHEDPEVQFNWYVDGVEVHNAKTKPREEQFNSTFRVVSVLTVVHQDWLNGKEYKCKVSNKGLPAPIEKTISKTKGQPREPQVYTLPPSREEMTKNQVSLTCLVEGFYPSDIAVEWESNGQPENNYKTTPPMLDSDGSFFLYSELTVDKSRWQQGNVFSCSVMHEALHNHYTQKSLSLSPGK light: DIVMTQSPDSLAVSLGERATISCRASESVDNYGISFMKWFQQKPGQPPKLLIYAASNQGSGVPDRFSGSGSGTDFTLTISSLQAEDVAVYYCQQSKEVPWTFGGGTKVEIKRTVAAPSVIFPPSDEQLKSGTASVVCLLNNFYPREAKVQWKVDNALQSGNSQESVTEQDSKDSTYSLSSTLTLSKADYEKHKVYACEVTHQGLSSPVTKSFNRGEC | reduced tumor growth frequency | 4 out of 10 | bind mouse VEGF | > 100 | inhibited DLL4-induced Notch signaling |  | 
2 | 219R45-MB-21M18: anti-VEGF/anti-DLL4 monovalent/bispecific antibody, heavy chains SEQ ID NO:7 and 5, light chains SEQ ID NO:8 (antibody, 21R79 Heavy chain without predicted signal sequence; 21M18 Heavy chain without predicted signal sequence; Light chain without predicted signal sequence) heavy 1: QVQLVQSGAEVKKPGASVKVSCKASGYTFTNYWMHWVRQAPGQGLEWMGDINPSNGRTSYKEKFKRRVTLSVDKSSSTAYMELSSLRSEDTAVYFCTIHYDDKYYPLMDYWGQGTLVTVSSASTKGPSVFPLAPCSRSTSESTAALGCLVKDYFPEPVTVSWNSGALTSGVHTFPAVLQSSGLYSLSSVVTVPSSNFGTQTYTCNVDHKPSNTKVDKTVERKCCVECPPCPAPPVAGPSVFLFPPKPKDTLMISRTPEVTCVVVDVSHEDPEVQFNWYVDGVEVHNAKTKPREEQFNSTFRVVSVLTVVHQDWLNGKEYKCKVSNKGLPAPIEKTISKTKGQPREPQVYTLPPSREKMTKNQVSLTCLVKGFYPSDIAVEWESNGQPENNYKTTPPMLKSDGSFFLYSKLTVDKSRWQQGNVFSCSVMHEALHNHYTQKSLSLSPGK heavy 2: QVQLVQSGAEVKKPGASVKISCKASGYSFTAYYIHWVKQAPGQGLEWIGYISSYNGATNYNQKFKGRVTFTTDTSTSTAYMELRSLRSDDTAVYYCARDYDYDVGMDYWGQGTLVTVSSASTKGPSVFPLAPCSRSTSESTAALGCLVKDYFPEPVTVSWNSGALTSGVHTFPAVLQSSGLYSLSSVVTVPSSNFGTQTYTCNVDHKPSNTKVDKTVERKCCVECPPCPAPPVAGPSVFLFPPKPKDTLMISRTPEVTCVVVDVSHEDPEVQFNWYVDGVEVHNAKTKPREEQFNSTFRVVSVLTVVHQDWLNGKEYKCKVSNKGLPAPIEKTISKTKGQPREPQVYTLPPSREEMTKNQVSLTCLVEGFYPSDIAVEWESNGQPENNYKTTPPMLDSDGSFFLYSELTVDKSRWQQGNVFSCSVMHEALHNHYTQKSLSLSPGK light: DIVMTQSPDSLAVSLGERATISCRASESVDNYGISFMKWFQQKPGQPPKLLIYAASNQGSGVPDRFSGSGSGTDFTLTISSLQAEDVAVYYCQQSKEVPWTFGGGTKVEIKRTVAAPSVIFPPSDEQLKSGTASVVCLLNNFYPREAKVQWKVDNALQSGNSQESVTEQDSKDSTYSLSSTLTLSKADYEKHKVYACEVTHQGLSSPVTKSFNRGEC | reduced tumor growth frequency | 5 out of 10 | bind mouse VEGF | > 100 | inhibited DLL4-induced Notch signaling only at high antibody concentrations | had the greatest effect in reducing tumor growth frequency | 
3 | 21M18: anti-DLL4 antibody, parental antibody (Hoey et al., 2009; U.S. Pat. No. 7,750,124) (antibody, V domains shown) VH: QVQLVQSGAEVKKPGASVKISCKASGYSFTAYYIHWVKQAPGQGLEWIGYISSYNGATNYNQKFKGRVTFTTDTSTSTAYMELRSLRSDDTAVYYCARDYDYDVGMDYWGQGTLVTVSS VL: DIVMTQSPDSLAVSLGERATISCRASESVDNYGISFMKWFQQKPGQPPKLLIYAASNQGSGVPDRFSGSGSGTDFTLTISSLQAEDVAVYYCQQSKEVPWTFGGGTKVEIK | reduced tumor growth frequency | 5 out of 10 |  | > 100 | inhibited DLL4-induced Notch signaling |  | > 100
